# Patent US20200199576
# Residue numbers refer to the chain shown, from its start. In names and notes the source's numbering stands.
# T1: xUbcH7 (human), R5E, K9E
# T1 chain: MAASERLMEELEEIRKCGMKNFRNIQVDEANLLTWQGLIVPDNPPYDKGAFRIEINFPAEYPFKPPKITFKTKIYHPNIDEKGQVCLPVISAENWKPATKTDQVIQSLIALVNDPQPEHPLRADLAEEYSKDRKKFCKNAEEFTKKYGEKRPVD
# T2: β-catenin, P35222
# T2 chain: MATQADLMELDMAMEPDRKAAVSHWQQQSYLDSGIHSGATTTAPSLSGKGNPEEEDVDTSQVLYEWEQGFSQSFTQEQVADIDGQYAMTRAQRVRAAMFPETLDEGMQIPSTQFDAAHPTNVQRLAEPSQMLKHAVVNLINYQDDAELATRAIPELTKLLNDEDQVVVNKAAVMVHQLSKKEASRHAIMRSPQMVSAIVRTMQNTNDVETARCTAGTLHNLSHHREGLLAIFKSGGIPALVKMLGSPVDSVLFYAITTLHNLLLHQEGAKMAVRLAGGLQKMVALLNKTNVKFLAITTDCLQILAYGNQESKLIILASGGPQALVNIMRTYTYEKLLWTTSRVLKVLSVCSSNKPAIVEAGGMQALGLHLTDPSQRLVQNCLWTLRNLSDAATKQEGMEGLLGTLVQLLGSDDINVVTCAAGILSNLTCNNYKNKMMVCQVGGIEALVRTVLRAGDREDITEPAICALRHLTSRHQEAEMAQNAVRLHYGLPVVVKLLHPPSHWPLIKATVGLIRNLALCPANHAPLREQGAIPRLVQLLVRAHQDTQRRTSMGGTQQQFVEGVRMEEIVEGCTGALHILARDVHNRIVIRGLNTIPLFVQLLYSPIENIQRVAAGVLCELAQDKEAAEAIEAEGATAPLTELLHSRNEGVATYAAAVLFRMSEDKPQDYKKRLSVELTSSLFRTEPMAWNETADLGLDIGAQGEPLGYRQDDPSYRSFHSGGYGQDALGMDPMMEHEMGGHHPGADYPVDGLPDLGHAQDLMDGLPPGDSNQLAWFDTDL
# T3: kinase MAPK3, P27361
# T3 chain: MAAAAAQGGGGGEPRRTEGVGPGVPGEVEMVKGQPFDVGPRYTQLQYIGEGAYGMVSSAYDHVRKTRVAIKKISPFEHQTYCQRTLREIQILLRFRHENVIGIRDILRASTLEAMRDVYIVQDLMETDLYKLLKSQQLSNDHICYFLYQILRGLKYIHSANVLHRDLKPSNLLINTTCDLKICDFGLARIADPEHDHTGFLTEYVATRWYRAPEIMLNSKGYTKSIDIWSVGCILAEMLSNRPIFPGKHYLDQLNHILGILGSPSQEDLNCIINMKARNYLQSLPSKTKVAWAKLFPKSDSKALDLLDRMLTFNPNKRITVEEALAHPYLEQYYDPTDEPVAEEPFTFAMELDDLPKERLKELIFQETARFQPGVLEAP
# T4: CDK4, P11802
# T4 chain: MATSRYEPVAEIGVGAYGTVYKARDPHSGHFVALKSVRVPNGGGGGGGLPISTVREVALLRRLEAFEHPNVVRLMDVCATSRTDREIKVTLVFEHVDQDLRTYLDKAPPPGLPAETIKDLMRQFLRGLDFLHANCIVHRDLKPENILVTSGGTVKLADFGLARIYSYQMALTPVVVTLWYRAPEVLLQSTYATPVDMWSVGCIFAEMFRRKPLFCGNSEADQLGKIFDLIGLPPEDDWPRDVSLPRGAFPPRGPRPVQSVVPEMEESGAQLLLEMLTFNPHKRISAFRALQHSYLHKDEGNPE
# B1: HECT domain of wt Smurf1 (protein)
# chain: YERDLVQKLKVLRHELSLQQPQAGHCRIEVSREEIFEESYRQIMKMRPKDLKKRLMVKFRGEEGLDYGGVAREWLYLLCHEMLNPYYGLFQYSTDNIYMLQINPDSSINPDHLSYFHFVGRIMGLAVFHGHYINGGFTVPFYKQLLGKPIQLSDLESVDPELHKSLVWILENDITPVLDHTFCVEHNAFGRILQHELKPNGRNVPVTEENKKEYVRLYVNWRFMRGIEAQFLALQKGFNELIPQHLLKPFDQKELELIIGGLDKIDLNDWKSNTRLKHCVADSNIVRWFWQAVETFDEERRARLLQFVTGSTRVPLQGFKALQGSTGAAGPRLFTIHLIDANTDNLPKAHTCFNRIDIPPYESYEKLYEKLLTAVEETCGFAVE
# B2: HECT domain of wt Nedd4 (protein)
# chain: SRDYKRKYEFFRRKLKKQNDIPNKFEMKLRRATVLEDSYRRIMGVKRADFLKARLWIEFDGEKGLDYGGVAREWFFLISKEMFNPYYGLFEYSATDNYTLQINPNSGLCNEDHLSYFKFIGRVAGMAVYHGKLLDGFFIRPFYKMMLHKPITLHDMESVDSEYYNSLRWILENDPTELDLRFIIDEELFGQTHQHELKNGGSEIVVTNKNKKEYIYLVIQWRFVNRIQKQMAAFKEGFFELIPQDLIKIFDENELELLMCGLGDVDVNDWREHTKYKNGYSANHQVIQWFWKAVLMMDSEKRIRLLQFVTGTSRVPMNGFAELYGSNGPQSFTVEQWGTPEKLPRAHTCFNRLDLPPYESFEELWDKLQMAIENTQGFDGVD
# B3: wt CHIP (full-length) (protein)
# chain: MKGKEEKEGGARLGAGGGSPEKSPSAQELKEQGNRLFVGRKYPEAAACYGRAIMQQHEQALADCRRALELDGQSVKAHFFLGQCQLEMESYDEAIANLQRAYSLAKEQRLNFGDDIPSALRIAKKKRWNSIEERRIHQESELHSYLSRLIAAERERELEECQRNHEGDEDDSHVRAQQACIEAKHDKYMADMDELFSQVDEKRKKRDIPDYLCGKISFELMREPCITPSGITYDRKDIEEHLQRVGHFDPVTRSPLTQEQLIPNLAMKEVIDAFISENGWVEDY
# B4: xCHIP (CHIP-KB2), C213K, G214D, K215P, S217M, F218H, E219T (protein)
# chain: B3 chain with C213K, G214D, K215P, S217M, F218H, E219T
# B5: xCHIP (CHIP-KB12), C213K, G214D, K215P, S217M, F218R, E219T (protein)
# chain: B3 chain with C213K, G214D, K215P, S217M, F218R, E219T
# B6: wt HECT domain of E6AP (protein)
# chain: MKRAAAKHLIERYYHQLTEGCGNEACTNEFCASCPTFLRMDNNAAAIKALELYKINAKLCDPHPSKKGASSAYLENSKGAPNNSCSEIKMNKKGARIDFKDVTYLTEEKVYEILELCREREDYSPLIRVIGRVFSSAEALVQSFRKVKQHTKEELKSLQAKDEDKDEDEKEKAACSAAAMEEDSEASSSRIGDSSQGDNNLQKLGPDDVSVDIDAIRRVYTRLLSNEKIETAFLNALVYLSPNVECDLTYHNVYSRDPNYLNLFIIVMENRNLHSPEYLEMALPLFCKAMSKLPLAAQGKLIRLWSKYNADQIRRMMETFQQLITYKVISNEFNSRNLVNDDDAIVAASKCLKMVYYANVVGGEVDTNHNEEDDEEPIPESSELTLQELLGEERRNKKGPRVDPLETELGVKTLDCRKPLIPFEEFINEPLNEVLEMDKDYTFFKVETENKFSFMTCPFILNAVTKNLGLYYDNRIRMYSERRITVLYSLVQGQQLNPYLRLKVRRDHIIDDALVRLEMIAMENPADLKKQLYVEFEGEQGVDEGGVSKEFFQLVVEEIFNPDIGMFTYDESTKLFWFNPSSFETEGQFTLIGIVLGLAIYNNCILDVHFPMVVYRKLMGKKGTFRDLGDSHPVLYQSLKDLLEYEGNVEDDMMITFQISQTDLFGNPMMYDLKENGDKIPITNENRKEFVNLYSDYILNKSVEKQFKAFRRGFHMVTNESPLKYLFRPEEIELLICGSRNLDFQALEETTEYDGGYTRDSVLIREFWEIVHSFTDEQKRLFLQFTTGTDRAPVGGLGKLKMIIAKNGPDTERLPTSHTCFNVLLLPEYSSKEKLKERLLKAITYAKGFGML
# B7: xE6AP (fYW6), full-length E6AP with the YW6 HECT domain (protein)
# chain: B6 chain with D651R, D652E, M653W, M654H
# B8: E6AP HECT mutant YW6 (D651R, D652E, M653W, M654H) (protein)
# chain: B6 chain with D651R, D652E, M653W, M654H
# Experiments:
# xUbcH7 (human), R5E, K9E = target: T1, xUbcH7 (human), R5E, K9E
# [1] = target: protein arginine methyl transferase PRMT1, Q99873
# protein arginine methyl transferase PRMT1, Q99873, sequence (Q99873 whole entry, looked up): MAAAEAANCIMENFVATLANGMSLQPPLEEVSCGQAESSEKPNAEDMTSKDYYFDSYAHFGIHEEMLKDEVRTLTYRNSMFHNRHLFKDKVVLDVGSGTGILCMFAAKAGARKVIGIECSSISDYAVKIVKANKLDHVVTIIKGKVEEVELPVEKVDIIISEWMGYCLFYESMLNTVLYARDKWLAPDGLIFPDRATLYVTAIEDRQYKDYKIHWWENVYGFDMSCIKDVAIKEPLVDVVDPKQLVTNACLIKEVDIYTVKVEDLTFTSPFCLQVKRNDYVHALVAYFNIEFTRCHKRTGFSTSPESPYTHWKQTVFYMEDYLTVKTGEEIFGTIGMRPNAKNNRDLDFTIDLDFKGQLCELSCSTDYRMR
# β-catenin, P35222 = target: T2, β-catenin, P35222
# [2] = target: phosphatase PPP3CA, Q08209
# kinase MAPK3, P27361 = target: T3, kinase MAPK3, P27361
# CDK4, P11802 = target: T4, CDK4, P11802
# p53, P04637, sequence (P04637 whole entry, looked up): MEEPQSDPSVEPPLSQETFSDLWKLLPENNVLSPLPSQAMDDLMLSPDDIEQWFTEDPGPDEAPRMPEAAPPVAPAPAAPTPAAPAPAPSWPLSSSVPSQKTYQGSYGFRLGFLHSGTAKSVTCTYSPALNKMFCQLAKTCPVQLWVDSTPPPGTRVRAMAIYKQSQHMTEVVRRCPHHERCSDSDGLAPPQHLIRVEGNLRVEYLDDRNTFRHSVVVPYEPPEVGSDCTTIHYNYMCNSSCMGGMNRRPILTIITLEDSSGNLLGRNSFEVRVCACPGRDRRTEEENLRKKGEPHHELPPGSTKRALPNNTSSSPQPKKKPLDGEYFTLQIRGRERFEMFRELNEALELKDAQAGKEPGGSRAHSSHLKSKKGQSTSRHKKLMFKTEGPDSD
protein,measurement,setting,value
B1,"HECT auto-ubiquitination with wt UB, reducing gel",wt UbcH7 (human E2),"HECT domains of wt E6AP, Nedd4, Smurf1 and Smurf2 can be loaded with wt UB through the wt Uba1-UbcH7 pair"
same,"HECT auto-ubiquitination with xUB, reducing gel","xUbcH7 (human), R5E, K9E","the R5E and K9E mutants in the N-terminal helix of xUbcH7 interfered with the transfer of xUB to wt HECT E3s such as E6AP, Nedd4, Smurf1, and Smurf2"
B2,"HECT auto-ubiquitination with wt UB, reducing gel",wt UbcH7 (human E2),"HECT domains of wt E6AP, Nedd4, Smurf1 and Smurf2 can be loaded with wt UB through the wt Uba1-UbcH7 pair"
same,"HECT auto-ubiquitination with xUB, reducing gel","xUbcH7 (human), R5E, K9E","the R5E and K9E mutants in the N-terminal helix of xUbcH7 interfered with the transfer of xUB to wt HECT E3s such as E6AP, Nedd4, Smurf1, and Smurf2"
B3,"in vitro substrate ubiquitination with wt UB through wt Uba1-UbcH5b-CHIP, Western blot",[1],CHIP ubiquitination of PRMT1 and PPP3CA generated mono-ubiquitinated species
same,"in vitro substrate ubiquitination with wt UB through wt Uba1-UbcH5b-CHIP, Western blot","β-catenin, P35222","CHIP could poly-ubiquitinate MAPK3, β-catenin and CDK4"
same,"in vitro substrate ubiquitination with wt UB through wt Uba1-UbcH5b-CHIP, Western blot",[2],CHIP ubiquitination of PRMT1 and PPP3CA generated mono-ubiquitinated species
same,"p53 ubiquitination with wt UB, Western blot","p53, P04637",p53 modification by wt UB going through the wt Uba1-UbcH5b-CHIP cascade
same,"in vitro substrate ubiquitination with wt UB through wt Uba1-UbcH5b-CHIP, Western blot","kinase MAPK3, P27361","CHIP could poly-ubiquitinate MAPK3, β-catenin and CDK4"
same,"in vitro substrate ubiquitination with wt UB through wt Uba1-UbcH5b-CHIP, Western blot","CDK4, P11802","CHIP could poly-ubiquitinate MAPK3, β-catenin and CDK4"
B4,"p53 ubiquitination with xUB, Western blot","p53, P04637","both CHIP mutants could transfer xUB to p53, a known CHIP substrate (26), at an efficiency comparable to wt UB transfer by wt CHIP"
B5,"p53 ubiquitination with xUB, Western blot","p53, P04637","both CHIP mutants could transfer xUB to p53, a known CHIP substrate (26), at an efficiency comparable to wt UB transfer by wt CHIP"
B6,"HECT auto-ubiquitination with wt UB, reducing gel",wt UbcH7 (human E2),"HECT domains of wt E6AP, Nedd4, Smurf1 and Smurf2 can be loaded with wt UB through the wt Uba1-UbcH7 pair"
B7,"p53 ubiquitination in the presence of E6, Western blot","p53, P04637",fYW6 could efficiently ubiquitinate p53 with xUB through the xUba1-xUbcH7-fYW6 cascade and the ubiquitination was dependent on the E6 protein
same,"full-length E6AP auto-ubiquitination with xUB, Western blot","xUbcH7 (human), R5E, K9E",fYW4 and fYW6 can be auto-ubiquitinated by xUB through the xUba1-xUbcH7 cascade
B8,"HECT auto-ubiquitination with xUB, Western blot","xUbcH7 (human), R5E, K9E","YW3, YW4 and YW6 could be efficiently auto-ubiquitinated with xUB through the xUba1-xUbcH7 pair"
